The record followed here is the Immune Epitope Database (IEDB).

Among the targets are HLA-A*02:06; HLA-A*02:01; HLA-A*02:03; HLA-A*68:02; HLA-A*02:02.
Holding throughout (assay): IEDB peptide-MHC binding, purified MHC/competitive/radioactivity; ≥ and ≤ were set here for values at or beyond the usual limits of such assays
Setting [1] is: source organism: Vaccinia virus WR.
[2] abbreviates: source organism: Hepacivirus hominis.
Setting [3] is: source organism: Mammarenavirus brazilense.
[4] abbreviates: source organism: Mammarenavirus choriomeningitidis.

On to LIVNSVLLFL, for which the IC50 with HLA-A*02:06 (source organism: SARS-CoV1) is 11 nM; with HLA-A*02:01 (source organism: SARS-CoV1), 27 nM; with HLA-A*02:03 (source organism: SARS-CoV1), 90 nM; with HLA-A*68:02 (source organism: SARS-CoV1), 169 nM; with HLA-A*02:02 (source organism: SARS-CoV1), 3.7 nM.

Turning to LIYDDNIDSI, the IC50 came to 212 nM with HLA-A*02:06 (setting [1]); 658 nM with HLA-A*02:01 (setting [1]); 26 nM with HLA-A*02:03 (setting [1]); 199 nM with HLA-A*68:02 (setting [1]); 121 nM with HLA-A*02:02 (setting [1]).

On to LLALLSCISV, for which the half-maximal inhibitory concentration (IC50) in the assay with HLA-A*02:06 (setting [2]) stood at 16 nM; with HLA-A*02:01 (setting [2]), 2.4 nM; in the assay with HLA-A*02:03 (setting [2]), 1.3 nM; with HLA-A*68:02 (setting [2]) it was 2450 nM; with HLA-A*02:02 (setting [2]), 0.77 nM.

As to LLALQQLEV, the half-inhibitory concentration (IC50) with HLA-A*02:06 (source organism: SARS-CoV1) was determined as 42 nM; with HLA-A*02:01 (source organism: SARS-CoV1), 1 nM; with HLA-A*02:03 (source organism: SARS-CoV1), 0.29 nM; with HLA-A*68:02 (source organism: SARS-CoV1), 83 nM; with HLA-A*02:02 (source organism: SARS-CoV1), 0.14 nM.

As for LLAPITAYA, the IC50 in the assay with HLA-A*02:06 (setting [2]) is 5.3 nM; with HLA-A*02:01 (setting [2]), 2.9 nM; with HLA-A*02:03 (setting [2]), 0.61 nM; with HLA-A*68:02 (setting [2]) it was 1.5 nM; with HLA-A*02:02 (setting [2]) it was 0.27 nM.

As for LLFLVLIML, the IC50 with HLA-A*02:06 (source organism: SARS-CoV1) was determined as 573 nM; with HLA-A*02:01 (source organism: SARS-CoV1) it was 294 nM; in the assay with HLA-A*02:03 (source organism: SARS-CoV1), 1370 nM; with HLA-A*68:02 (source organism: SARS-CoV1), 1250 nM; in the assay with HLA-A*02:02 (source organism: SARS-CoV1), 154 nM.

For LLFNKVTLA, the IC50 with HLA-A*02:06 (source organism: SARS-CoV1) worked out at 9 nM; with HLA-A*02:01 (source organism: SARS-CoV1), 5 nM; with HLA-A*02:03 (source organism: SARS-CoV1) it was 1.1 nM; with HLA-A*68:02 (source organism: SARS-CoV1), 288 nM; in the assay with HLA-A*02:02 (source organism: SARS-CoV1), 0.95 nM.

As for LLFQLCTFT, the IC50 with HLA-A*02:06 (source organism: SARS-CoV1) was determined as 11 nM; in the assay with HLA-A*02:01 (source organism: SARS-CoV1), 833 nM; with HLA-A*02:03 (source organism: SARS-CoV1), 3.8 nM; with HLA-A*68:02 (source organism: SARS-CoV1), 855 nM; in the assay with HLA-A*02:02 (source organism: SARS-CoV1) it was 22 nM.

Consider LLIAITAFT, for which the IC50 with HLA-A*02:06 (setting [2]) is 461 nM; with HLA-A*02:01 (setting [2]) it was 174 nM; in the assay with HLA-A*02:03 (setting [2]) it was 12 nM; with HLA-A*68:02 (setting [2]) it was 1050 nM; with HLA-A*02:02 (setting [2]), 37 nM.

As for LLLEWLAEV, the half-maximal inhibitory concentration (IC50) in the assay with HLA-A*02:06 (source organism: SARS-CoV1) was 0.11 nM; with HLA-A*02:01 (source organism: SARS-CoV1), 0.22 nM; with HLA-A*02:03 (source organism: SARS-CoV1), 0.63 nM; with HLA-A*68:02 (source organism: SARS-CoV1) it was 339 nM; with HLA-A*02:02 (source organism: SARS-CoV1) it was 0.11 nM.

Turning to LLLWISVKV, the IC50 came to 10 nM in the assay with HLA-A*02:06 (source organism: SARS-CoV1); 13 nM in the assay with HLA-A*02:01 (source organism: SARS-CoV1); 198 nM in the assay with HLA-A*02:03 (source organism: SARS-CoV1); 2740 nM in the assay with HLA-A*68:02 (source organism: SARS-CoV1); 94 nM with HLA-A*02:02 (source organism: SARS-CoV1).

LLMCAVHPEL: the concentration for half-maximal inhibition (IC50) turned out to be 442 nM in the assay with HLA-A*02:06 (setting [2]); 54 nM in the assay with HLA-A*02:01 (setting [2]); 177 nM in the assay with HLA-A*02:03 (setting [2]); 1350 nM in the assay with HLA-A*68:02 (setting [2]); 25 nM with HLA-A*02:02 (setting [2]).

With LLPDALLFTL, the IC50 in the assay with HLA-A*02:06 (setting [3]) was found to be 79 nM; with HLA-A*02:01 (setting [3]), 77 nM; in the assay with HLA-A*02:03 (setting [3]), 733 nM; with HLA-A*68:02 (setting [3]), 232 nM; with HLA-A*02:02 (setting [3]), 4.7 nM.

Turning to LLPLTSLVIT, the IC50 with HLA-A*02:06 (setting [1]) turned out to be 1610 nM; with HLA-A*02:01 (setting [1]) it was 1170 nM; with HLA-A*02:03 (setting [1]), 1320 nM; with HLA-A*68:02 (setting [1]), 1490 nM; in the assay with HLA-A*02:02 (setting [1]), 999 nM.

Turning to LLSAGIFGA, the IC50 with HLA-A*02:06 (source organism: SARS-CoV1) was 25 nM; with HLA-A*02:01 (source organism: SARS-CoV1), 8.1 nM; in the assay with HLA-A*02:03 (source organism: SARS-CoV1), 15 nM; with HLA-A*68:02 (source organism: SARS-CoV1), 106 nM; with HLA-A*02:02 (source organism: SARS-CoV1), 12 nM.

With LLSCISVPV, the concentration for half-maximal inhibition (IC50) came to 17 nM with HLA-A*02:06 (setting [2]); 2.5 nM with HLA-A*02:01 (setting [2]); 4.7 nM with HLA-A*02:03 (setting [2]); 15 nM with HLA-A*68:02 (setting [2]); 1.4 nM in the assay with HLA-A*02:02 (setting [2]).

For the sequence LLTDTIESA, the IC50 stood at 5.9 nM with HLA-A*02:06 (setting [1]); 25 nM in the assay with HLA-A*02:01 (setting [1]); 11 nM with HLA-A*02:03 (setting [1]); 1240 nM with HLA-A*68:02 (setting [1]); 17 nM with HLA-A*02:02 (setting [1]).

As to LLWFLTGTFV, the IC50 came out at 18 nM with HLA-A*02:06 (setting [1]); 0.32 nM with HLA-A*02:01 (setting [1]); 9.2 nM with HLA-A*02:03 (setting [1]); 0.13 nM in the assay with HLA-A*68:02 (setting [1]); 2.4 nM in the assay with HLA-A*02:02 (setting [1]).

For the sequence LMANLAPHLL, the IC50 with HLA-A*02:06 (source organism: SARS-CoV1) worked out at 115 nM; with HLA-A*02:01 (source organism: SARS-CoV1), 30 nM; with HLA-A*02:03 (source organism: SARS-CoV1) it was 1.5 nM; with HLA-A*68:02 (source organism: SARS-CoV1), 1170 nM; with HLA-A*02:02 (source organism: SARS-CoV1) it was 0.23 nM.

As for LMDCIIFES, the half-inhibitory concentration (IC50) came out at 300 nM with HLA-A*02:06 (setting [4]); 99 nM in the assay with HLA-A*02:01 (setting [4]); 825 nM in the assay with HLA-A*02:03 (setting [4]); 425 nM with HLA-A*68:02 (setting [4]); 30 nM with HLA-A*02:02 (setting [4]).

Turning to LMDSIFVSTM, the IC50 with HLA-A*02:06 (setting [1]) was found to be 610 nM; in the assay with HLA-A*02:01 (setting [1]), 259 nM; with HLA-A*02:03 (setting [1]), 8.1 nM; with HLA-A*68:02 (setting [1]), 680 nM; in the assay with HLA-A*02:02 (setting [1]) it was 3.7 nM.

As for LMGHFSWWTA, the IC50 with HLA-A*02:06 (source organism: SARS-CoV1) is 97 nM; with HLA-A*02:01 (source organism: SARS-CoV1), 18 nM; with HLA-A*02:03 (source organism: SARS-CoV1) it was 135 nM; with HLA-A*68:02 (source organism: SARS-CoV1) it was 82 nM; in the assay with HLA-A*02:02 (source organism: SARS-CoV1) it was 19 nM.

LMIFISSFL: the IC50 with HLA-A*02:06 (setting [1]) was found to be 18 nM; with HLA-A*02:01 (setting [1]), 0.32 nM; with HLA-A*02:03 (setting [1]), 0.13 nM; with HLA-A*68:02 (setting [1]), 35 nM; with HLA-A*02:02 (setting [1]), 0.65 nM.

Broadly, the IC50 is the concentration that inhibits the measured activity by half.
